Where two headings read alike, the source gives them in different places.
How the values were obtained:
Assay in all cases: other fluorescence titration
[1] = target: BIQ, fluorescent reporter containing an IQ domain sequence derived from neuromodulin (UniProt P17677)
[2] = target: BIQG^6M, variant of BIQ with replacement M for the G at position 6
[3] = target: BIQG^6A, variant of BIQ with replacement A for the G at position 6
[4] = target: BIQG^6R, variant of BIQ with replacement R for the G at position 6
[5] = target: BIQ, fluorescent reporter containing an IQ domain sequence derived from neuromodulin (UniProt P17677); remark: listed apart in the source
[6] = target: BIQG^6A, variant of BIQ with replacement A for the G at position 6; remark: listed apart in the source

- Kd [1]: 2900 nM
- Kd [2]: 400 nM
- Kd [3]: 900 nM
- Kd [4]: 400 nM
- Kd [5]: 2400 nM
- Kd [6]: 5400 nM
Substance: calmodulin (native CaM) (from UniProt P0DP23 1-149) (natural protein)

From paper PMC3105379
